T1: cynomolgus monkey FcγRIIa1 extracellular domain, C-terminal His-tag (cynomolgus monkey)
T1 construct: also called cyno FcγRIIa1; cynoFcgRIIa1
T1 chain: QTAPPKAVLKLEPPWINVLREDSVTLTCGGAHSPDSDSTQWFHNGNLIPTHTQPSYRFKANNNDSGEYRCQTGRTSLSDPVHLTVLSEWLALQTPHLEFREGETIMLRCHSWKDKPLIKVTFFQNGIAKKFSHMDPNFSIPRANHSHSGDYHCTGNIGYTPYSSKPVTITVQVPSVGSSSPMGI

T2: cynomolgus monkey FcγRIIa2 extracellular domain, C-terminal His-tag (cynomolgus monkey)
T2 construct: also called cyno FcγRIIa2; cynoFcgRIIa2
T2 chain: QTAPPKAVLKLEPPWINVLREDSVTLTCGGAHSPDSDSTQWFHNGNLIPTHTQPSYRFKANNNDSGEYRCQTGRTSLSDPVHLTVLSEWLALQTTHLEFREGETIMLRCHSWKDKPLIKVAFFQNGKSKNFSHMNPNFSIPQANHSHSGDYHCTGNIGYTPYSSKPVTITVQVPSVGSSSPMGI

T3: cynomolgus monkey FcγRIIa3 extracellular domain, C-terminal His-tag (cynomolgus monkey)
T3 construct: also called cyno FcγRIIa3; cynoFcgRIIa3
T3 chain: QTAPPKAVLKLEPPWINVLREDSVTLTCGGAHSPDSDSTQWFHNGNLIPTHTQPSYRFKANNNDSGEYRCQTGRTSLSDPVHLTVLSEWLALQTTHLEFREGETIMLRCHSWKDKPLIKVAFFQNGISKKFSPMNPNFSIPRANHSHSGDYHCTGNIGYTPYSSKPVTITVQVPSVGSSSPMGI

T4: cynomolgus monkey FcγRIIb extracellular domain, C-terminal His-tag (cynomolgus monkey)
T4 construct: also called cyno FcγRIIb; cynoFcγRIIb
T4 chain: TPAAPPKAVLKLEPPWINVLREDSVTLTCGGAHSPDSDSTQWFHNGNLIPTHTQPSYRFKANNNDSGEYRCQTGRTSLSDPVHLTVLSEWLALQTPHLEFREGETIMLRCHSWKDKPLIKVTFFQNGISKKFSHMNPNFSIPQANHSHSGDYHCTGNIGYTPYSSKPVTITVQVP

T5: cynomolgus monkey FcγRIIIaS extracellular domain, C-terminal His-tag (cynomolgus monkey, UniProt Q8SPW2 21-206 at identity 1.00))
T5 construct: also called cyno FcγRIIIaS; cynoFcγRIIIaS
T5 chain: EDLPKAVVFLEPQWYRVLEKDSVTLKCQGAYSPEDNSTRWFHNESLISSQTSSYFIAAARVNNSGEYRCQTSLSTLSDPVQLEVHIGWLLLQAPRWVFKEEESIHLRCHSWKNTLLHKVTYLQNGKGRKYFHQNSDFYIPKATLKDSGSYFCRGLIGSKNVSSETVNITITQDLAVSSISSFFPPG

T6: human FcγRIIaR extracellular domain, C-terminal His-tag (human, UniProt P12318 34-217)
T6 construct: also called human FcγRIIa (type R); FcgRIIaR
T6 chain: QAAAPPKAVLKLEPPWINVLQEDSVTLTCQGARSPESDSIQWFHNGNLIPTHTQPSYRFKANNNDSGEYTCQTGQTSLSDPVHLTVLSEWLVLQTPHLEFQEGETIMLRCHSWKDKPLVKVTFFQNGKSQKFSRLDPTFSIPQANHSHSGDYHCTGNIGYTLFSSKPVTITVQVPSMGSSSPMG

T7: human FcγRIIb extracellular domain, C-terminal His-tag (human, UniProt P31994 43-217)
T7 construct: also called human FcgRIIb; FcgRIIb
T7 sequence: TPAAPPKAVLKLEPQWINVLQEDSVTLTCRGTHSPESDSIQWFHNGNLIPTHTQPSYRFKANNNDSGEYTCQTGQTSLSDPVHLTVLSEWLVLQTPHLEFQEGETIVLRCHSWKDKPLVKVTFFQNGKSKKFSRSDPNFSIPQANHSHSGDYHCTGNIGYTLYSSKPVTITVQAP

T8: human FcγRIIaH extracellular domain, C-terminal His-tag (human, UniProt P12318 34-217)
T8 construct: also called human FcγRIIa (type H); FcgRIIaH
T8 sequence: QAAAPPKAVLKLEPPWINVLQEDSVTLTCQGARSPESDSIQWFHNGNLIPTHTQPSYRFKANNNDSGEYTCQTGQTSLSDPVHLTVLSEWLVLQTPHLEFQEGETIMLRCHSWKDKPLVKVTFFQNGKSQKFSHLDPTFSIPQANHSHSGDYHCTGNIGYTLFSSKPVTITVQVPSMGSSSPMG

T9: cynomolgus monkey FcγRIIa1 extracellular domain, C-terminal His-tag (cynomolgus monkey)
T9 construct: also called cyno FcγRIIa1; FcgRIIa1
T9 chain: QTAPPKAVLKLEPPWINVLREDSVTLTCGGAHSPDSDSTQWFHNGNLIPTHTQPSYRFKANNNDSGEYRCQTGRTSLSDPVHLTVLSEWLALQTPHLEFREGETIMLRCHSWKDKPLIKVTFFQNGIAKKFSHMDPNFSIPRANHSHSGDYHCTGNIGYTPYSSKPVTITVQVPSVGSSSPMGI

T10: cynomolgus monkey FcγRIIa2 extracellular domain, C-terminal His-tag (cynomolgus monkey)
T10 construct: also called cyno FcγRIIa2; FcgRIIa2
T10 chain: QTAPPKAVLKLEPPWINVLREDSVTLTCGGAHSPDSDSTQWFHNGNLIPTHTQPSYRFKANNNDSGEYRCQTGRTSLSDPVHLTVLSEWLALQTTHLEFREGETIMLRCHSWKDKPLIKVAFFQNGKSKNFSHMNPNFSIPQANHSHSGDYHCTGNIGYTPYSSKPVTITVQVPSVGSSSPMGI

T11: cynomolgus monkey FcγRIIa3 extracellular domain, C-terminal His-tag (cynomolgus monkey)
T11 construct: also called cyno FcγRIIa3; FcgRIIa3
T11 chain: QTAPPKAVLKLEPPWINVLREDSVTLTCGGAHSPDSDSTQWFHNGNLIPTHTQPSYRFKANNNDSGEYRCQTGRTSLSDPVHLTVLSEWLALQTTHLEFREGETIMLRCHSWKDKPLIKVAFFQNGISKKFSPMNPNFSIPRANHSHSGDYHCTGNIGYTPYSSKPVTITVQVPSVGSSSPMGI

T12: cynomolgus monkey FcγRIIb extracellular domain, C-terminal His-tag (cynomolgus monkey)
T12 construct: also called cyno FcγRIIb; cynoFcγRIIb
T12 chain: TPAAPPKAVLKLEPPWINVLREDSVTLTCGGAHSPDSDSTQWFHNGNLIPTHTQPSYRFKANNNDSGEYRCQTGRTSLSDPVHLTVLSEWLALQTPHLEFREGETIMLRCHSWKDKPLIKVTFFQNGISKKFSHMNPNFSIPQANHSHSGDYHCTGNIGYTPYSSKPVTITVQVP


Key:
[1] = molecular target: T1, cynomolgus monkey FcγRIIa1 …; experiment: SPR (Biacore); KD of SG1 / KD of variant;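 note: relative to parent M103205H795-SG1 carrying the SG1 human heavy chain constant region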
Procedure: (§1) The kinetic analysis of interactions between these antibodies and FcγR was carried out using BIACORE® T200 or BIACORE® 4000 (GE Healthcare). HBS-EP+ (GE Healthcare) was used as the running buffer, and the measurement temperature was set to 25° C. A chip produced by immobilizing Protein A. Protein A/G or mouse anti-human IgG kappa light chain (BD Biosciences) onto a Series S Sensor Chip CM4 or CM5 (GE Healthcare) by the amine-coupling method was used. […] After the measurement, the antibody captured on the chip was washed off by allowing reaction with 10 mM glycine-HCl, pH1.5 and 25 mM NaOH so that the chip was regenerated and used repeatedly. The sensorgrams obtained as measurement results were analyzed by the 1:1 Langmuir binding model using the BIACORE® Evaluation Software to calculate the binding rate constant ka (L/mol/s) and dissociation rate constant kd (l/s), and the dissociation constant KD (mol/L) was calculated from these values. […] Regarding such interactions, KD values were calculated using the following 1:1 binding model described in BIACORE® T100 Software Handbook BR1006-48 Edition AE.
(§2) The behavior of interacting molecules according to the 1:1 binding model on BIACORE® can be described by Equation 1: Req=C·R max/(KD+C)+RI, wherein, Req is a plot of steady-state binding levels to analyte concentration. C is concentration, RI is bulk refractive index contribution in the sample, and Rmax is analyte binding capacity of the surface. When this equation is rearranged, KD can be expressed as Equation 2: KD=C·Rmax/(Req−RI)−C. KD can be calculated by substituting the values of Rmax, RI, and C into Equation 1 or Equation 2. From the current measurement conditions, RI=0, C=2 μmol/L can be used.

[2] = molecular target: T2, cynomolgus monkey FcγRIIa2 …; experiment: SPR (Biacore); KD of SG1 / KD of variant;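 note: relative to parent M103205H795-SG1 carrying the SG1 human heavy chain constant region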
Procedure: as §1, §2

[3] = molecular target: T3, cynomolgus monkey FcγRIIa3 …; experiment: SPR (Biacore); KD of SG1 / KD of variant;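 note: relative to parent M103205H795-SG1 carrying the SG1 human heavy chain constant region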
Procedure: as §1, §2

[4] = molecular target: T4, cynomolgus monkey FcγRIIb extracellular …; experiment: SPR (Biacore); KD of SG1 / KD of variant;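 note: relative to parent M103205H795-SG1 carrying the SG1 human heavy chain constant region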
Procedure: as §1, §2

[5] = molecular target: T5, cynomolgus monkey FcγRIIIaS …; experiment: SPR (Biacore); KD of SG1 / KD of variant
Procedure: as §1, §2

[6] = molecular target: T6, human FcγRIIaR extracellular domain, …; experiment: SPR (Biacore); KD of SG1 / KD of variant
Procedure: as §1, §2

[7] = molecular target: T7, human FcγRIIb extracellular domain, …; experiment: SPR (Biacore); KD of SG1 / KD of variant
Procedure: as §1, §2

[8] = molecular target: T1, cynomolgus monkey FcγRIIa1 …; experiment: SPR (Biacore), antibody captured, FcgR analyte
[9] = molecular target: T2, cynomolgus monkey FcγRIIa2 …; experiment: SPR (Biacore), antibody captured, FcgR analyte
[10] = molecular target: T3, cynomolgus monkey FcγRIIa3 …; experiment: SPR (Biacore), antibody captured, FcgR analyte
[11] = molecular target: T4, cynomolgus monkey FcγRIIb extracellular …; experiment: SPR (Biacore), antibody captured, FcgR analyte
[12] = molecular target: T5, cynomolgus monkey FcγRIIIaS …; experiment: SPR (Biacore), antibody captured, FcgR analyte
[13] = molecular target: T8, human FcγRIIaH extracellular domain, …; experiment: SPR (Biacore), antibody captured, FcgR analyte
[14] = molecular target: T6, human FcγRIIaR extracellular domain, …; experiment: SPR (Biacore), antibody captured, FcgR analyte
[15] = molecular target: T7, human FcγRIIb extracellular domain, …; experiment: SPR (Biacore), antibody captured, FcgR analyte
[16] = molecular target: T13, human FcγRIIIaV extracellular domain, C-terminal His-tag (human, UniProt P08637 17-208); experiment: SPR (Biacore), antibody captured, FcgR analyte
T13 construct: also called human FcgRIIIaV; FcgRIIIaV
T13 sequence (P08637 17-208 F176V): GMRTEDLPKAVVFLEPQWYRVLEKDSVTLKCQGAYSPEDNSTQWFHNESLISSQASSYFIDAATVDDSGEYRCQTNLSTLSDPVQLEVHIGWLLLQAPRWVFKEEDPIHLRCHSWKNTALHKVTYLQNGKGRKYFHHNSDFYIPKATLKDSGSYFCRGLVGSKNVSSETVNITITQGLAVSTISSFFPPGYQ

[17] = molecular target: T9, cynomolgus monkey FcγRIIa1 …; experiment: SPR; FcgR bound per captured antibody, normalized to SG1
Procedure: as §1
(§3) The value of the amount of FcγR binding was obtained by dividing the amount of FcγR bound by the amount of each antibody captured.

[18] = molecular target: T10, cynomolgus monkey FcγRIIa2 …; experiment: as above
Procedure: as §1, §3

[19] = molecular target: T11, cynomolgus monkey FcγRIIa3 …; experiment: as above
Procedure: as §1, §3

[20] = molecular target: T12, cynomolgus monkey FcγRIIb extracellular …; experiment: as above
Procedure: as §1, §3

Row | Binder | KD fold (SG1 = 1) [1] [fold] | KD fold (SG1 = 1) [2] [fold] | KD fold (SG1 = 1) [3] [fold] | KD fold (SG1 = 1) [4] [fold] | KD fold (SG1 = 1) [5] [fold] | KD fold (SG1 = 1) [6] [fold] | KD fold (SG1 = 1) [7] [fold] | Kd [8] [nM] | Kd [9] [nM] | Kd [10] [µM] | Kd [11] [nM] | Kd [12] [nM] | Kd [13] [nM] | Kd [14] [µM] | Kd [15] [nM] | Kd [16] [µM] | amount of FcgR binding (SG1 = 100) [17] [SG1 = 100] | amount of FcgR binding (SG1 = 100) [18] [SG1 = 100] | amount of FcgR binding (SG1 = 100) [19] [SG1 = 100] | amount of FcgR binding (SG1 = 100) [20] [SG1 = 100]
1 | M103205H795-MY144/M103202L889-SK1 (antibody, human IgG1, kappa, P369M is read as a misprint of P396M) heavy: QVTLKESGPVLVKPTETLTLTCTVSGIDLSHDDISWVRQAPGKGLEWVGIISYAGSTYYASWAKGRLTISKDTSKNQVVLTMTNMDPVDTATYYCARGVPAYSHGGDLWGQGTLVTVSSASTKGPSVFPLAPSSKSTSGGTAALGCLVKDYFPEPVTVSWNSGALTSGVHTFPAVLQSSGLYSLSSVVTVPSSSLGTQTYICNVNHKPSNTKVDKKVEPKSCDKTHTCPPCPAPELLNGPSVFLFPPKPKDTLMISRTPEVTCVVVDVSDEDPEVKFNWYVDGVEVHNAKTKPREEQYNSTYRVVSVLTVLHQDWLNGKEYKCKVSNKALPAPIEKTISKAKGQPREPQVYTLPPSREEMTKNQVSLTCLVKGFYPSDIAVEWESNGQPENNYKTTPMVLDSDGSFFLYSKLTVDKSRWQQGNVFSCSVMHEALHNHYTQKSLSLSP light: DIVMTQSPATLSLSPGERATLSCTSSQSVYHANWLSWFQQKPGQPPKLLIYWASTLAYGVPSRFSGSGSGTDFTLTISSLQPEDAATYYCAGGYGGGRYAFGQGTKVEIKRTVAAPSVFIFPPSDEQLKSGTASVVCLLNNFYPREAKVQWKVDNALQSGNSQESVTEQDSKDSTYSLSSTLTLSKADYEKHKVYACEVTHQGLSSPVTKSFNRGEC | 3.6 | 5.7 | 4.5 | 4.1 | 0.16 | 0.8 | 6.2 | 890 | 820 | 3.8 | 440 | 2300 | 650 | 13 | 740 | 7.7 | – | – | – | –
2 | M103205H795-SG165/M103202L889-SK1 (antibody, human IgG1, kappa, also called G237Y) heavy: not shown light: DIVMTQSPATLSLSPGERATLSCTSSQSVYHANWLSWFQQKPGQPPKLLIYWASTLAYGVPSRFSGSGSGTDFTLTISSLQPEDAATYYCAGGYGGGRYAFGQGTKVEIKRTVAAPSVFIFPPSDEQLKSGTASVVCLLNNFYPREAKVQWKVDNALQSGNSQESVTEQDSKDSTYSLSSTLTLSKADYEKHKVYACEVTHQGLSSPVTKSFNRGEC | – | – | – | – | – | – | – | – | – | – | – | – | – | – | – | – | 18 | 17 | 30 | 30

From patent publication US20200317768A1 (published 2020)
